Test results as given in PMC6310132 (2016).

T1: Dopamine D1A D1A4 (Rattus norvegicus, UniProt P18901)
T1 chain: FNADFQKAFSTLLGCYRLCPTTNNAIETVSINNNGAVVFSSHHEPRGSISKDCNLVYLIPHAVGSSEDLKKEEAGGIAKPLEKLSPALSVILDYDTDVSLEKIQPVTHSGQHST

B1: snapin (protein)
chain: AAAGSAAVSGAGTPVAGPTGRDLFAEGLLEFLRPAVQQLDSHVHAVRESQVELREQIDNLATELCRINEDQKVALDLDPYVKKLLNARRRVVLVNNILQNAQERLRRLNHSVAKETARRRAMLDSGVYPPGSPSK

Key:
Dopamine D1A D1A4 = target: T1, Dopamine D1A D1A4; experiment: SPR
snapin = target: B1; experiment: SPR

| Kd (Dopamine D1A D1A4) [nM] | Kd (snapin) [nM] | Binder |
| --- | --- | --- |
| 14.6 |  | B1 |
|  | 23.4 | otoferlin C2F (protein) DMPAPGTPLDISPRKPKKYELRVIVWNTDEVVLEDDDFFTGEKSSDIFVRGWLKGQQEDKQDTDVHYHSLTGEGNFNWRYLFPFDYLAAEEKIVMSKKESMFSWDETEYKIPARLTLQIWDADHFSADDFLGAIELDLNRFPRGAKTAKQCT |
